B1: Retinoic acid receptor alpha (RARα) (natural protein, mouse (endogenous in testis), UniProt P11416 1-462, looked up)
chain: MASNSSSCPTPGGGHLNGYPVPPYAFFFPPMLGGLSPPGALTSLQHQLPVSGYSTPSPATIETQSSSSEEIVPSPPSPPPLPRIYKPCFVCQDKSSGYHYGVSACEGCKGFFRRSIQKNMVYTCHRDKNCIINKVTRNRCQYCRLQKCFDVGMSKESVRNDRNKKKKEAPKPECSESYTLTPEVGELIEKVRKAHQETFPALCQLGKYTTNNSSEQRVSLDIDLWDKFSELSTKCIIKTVEFAKQLPGFTTLTIADQITLLKAACLDILILRICTRYTPEQDTMTFSDGLTLNRTQMHNAGFGPLTDLVFAFANQLLPLEMDDAETGLLSAICLICGDRQDLEQPDKVDMLQEPLLEALKVYVRKRRPSRPHMFPKMLMKITDLRSISAKGAERVITLKMEIPGSMPPLIQEMLENSEGLDTLSGQSGGGTRDGGGLAPPPGSCSPSLSPSSHRSSPATQSP
notes: Retinoic acid receptor alpha, mouse, endogenous in testis; band of 52 kDa; Endogenous protein of C57BL/6 mouse testis; source: endogenous, mouse P7 testis protein extract
B2: PRAMEX1 (Prame like, X-linked 1) (natural protein, mouse (endogenous in testis), UniProt F7ADI6 1-462, looked up)
chain: MDERDPSSLLDLAIQSLLSNELVAIHSLGEIPRELFVPLFSAAFTGGYRKILTSMVKIWPFTCLHIGTLSVQEPQRELLKAMVESLQFLPAQDCSSGGPKLRILDVRQGVDCKTTCPDFGARSPTCFHGCTHSVHSILKLESQYSIVDLKPESQSAIQPMELLVDLSLDGTLREREFFALLLNKVQQSSGSLHLCCRDLQIDRFSYAKNALKFLDLTCIQNLTVDQASLSEVTTLLARMIYLDSLSLSKITYRSLHGKVFRVFLNYLGRMNCLKELNLSSFSLTDHLDSLLRALPPNLDFLYLPFCEISYRDLKFLSQSAQATHLKLLNLSNNPMYWDDCGPFQTLLQKLSDTLQHLAINHCHLTDAILSAILPALSKCSHLRVISFVSNPISMPMLLKILHYLTPLMELKYVIYPIPIHCYEQWQFHGRLDRQKLTDVQAQLKAMLQAAKRSDMNWITYSQ
notes: PRAMEX1 (Prame like, X-linked 1), mouse, endogenous in testis; band of about 56 kDa; Endogenous protein of C57BL/6 mouse testis; no recombinant construct; source: endogenous, mouse P7 testis protein extract

Key:
[1] = target: B2; assay: co-IP; anti-PRAMEX1 or anti-RARα antibody immobilised on protein A/G magnetic beads (Pierce Crosslink Magnetic IP/co-IP Kit); P7 testis proteins of WT, Pramex1 sKO and Pramel1 sKO mice, overnight at 4 °C; Western blot, band intensity relative to input (set as 1), n = 3; conditions: partners not purified
[2] = target: B1; assay: as above; conditions: partners not purified

Binder	band intensity in the PRAMEX1 precipitation relative to input, Pramel1 sKO testis [1]	band intensity in the PRAMEX1 precipitation relative to input, WT testis [1]	band intensity in the RARα co-IP relative to input, Pramel1 sKO testis [2]	band intensity in the RARα co-IP relative to input, WT testis [2]
B1	2.48 fold	1.5 fold		
B2			3.32 fold	1.3 fold

Source: publication PMC10893636, “Synergistic enhancement of the mouse Pramex1 and Pramel1 in repressing retinoic acid (RA) signaling during gametogenesis” (Cell & Bioscience, 2024)
